Reference: US10370642B2, “Hematopoietic progenitor cell populations having affinity for E-selectin / L-selectin” (priority 2000, dated 2019)

T1: L-selectin (Rattus norvegicus, UniProt P30836)
T1 construct: L-selectin naturally expressed on leukocytes; endogenous in cells; host or cells: lymphocytes (rat thoracic duct lymphocytes; human PBMC also prepared)
T1 sequence (P30836 39-372): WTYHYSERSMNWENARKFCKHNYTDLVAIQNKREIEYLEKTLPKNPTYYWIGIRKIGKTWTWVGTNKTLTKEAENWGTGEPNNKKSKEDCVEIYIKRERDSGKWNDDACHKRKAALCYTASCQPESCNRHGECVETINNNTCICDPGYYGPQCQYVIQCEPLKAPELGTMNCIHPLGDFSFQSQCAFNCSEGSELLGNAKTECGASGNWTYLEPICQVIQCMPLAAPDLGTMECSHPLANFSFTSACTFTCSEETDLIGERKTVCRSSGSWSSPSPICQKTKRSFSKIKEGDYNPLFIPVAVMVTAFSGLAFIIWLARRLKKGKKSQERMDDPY

T2: E-selectin (Homo sapiens, UniProt P16581)
T2 construct: stably transfected with full-length cDNA encoding human E-selectin; expressed in transfected cells
T2 sequence (P16581 22-610): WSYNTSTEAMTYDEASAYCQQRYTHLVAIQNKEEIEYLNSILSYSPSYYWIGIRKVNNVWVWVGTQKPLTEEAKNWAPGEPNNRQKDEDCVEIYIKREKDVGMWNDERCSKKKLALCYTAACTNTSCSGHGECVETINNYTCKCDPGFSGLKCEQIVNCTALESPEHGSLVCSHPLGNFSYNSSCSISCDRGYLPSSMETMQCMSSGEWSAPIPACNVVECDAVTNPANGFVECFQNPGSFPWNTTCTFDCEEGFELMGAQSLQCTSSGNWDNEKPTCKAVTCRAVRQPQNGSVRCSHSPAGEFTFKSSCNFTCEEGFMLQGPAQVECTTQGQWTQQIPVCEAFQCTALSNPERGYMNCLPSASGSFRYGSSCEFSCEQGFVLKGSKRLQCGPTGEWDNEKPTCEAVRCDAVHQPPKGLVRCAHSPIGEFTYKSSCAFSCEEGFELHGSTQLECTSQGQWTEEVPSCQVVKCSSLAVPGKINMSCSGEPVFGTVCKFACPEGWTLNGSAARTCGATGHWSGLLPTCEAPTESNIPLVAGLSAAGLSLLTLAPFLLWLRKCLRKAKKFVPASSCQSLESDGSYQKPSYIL


Tests used:
[1] = test system: HL60 cells; test: CHO-E cell rolling on glutaraldehyde-fixed HL60 monolayers; type: cell-based, human; settings: 2.8 dynes/cm^2; EDTA 5 mM; HECA 452 50 μg/ml
Source text: (§1) E-selectin-mediated adhesive interactions, under defined shear stress, were examined between hematopoietic cell monolayers and suspensions of CHO-E (Chinese hamster ovary cells stably transfected with full-length cDNA encoding human E-selectin) in flow. CHO-E and empty vector constructs (CHO-Mock) were maintained in MEM 10% FBS/1% Penicillin/Streptomycin (Life Technologies, Inc.) and HAM's F-12 (Cellgro, Inc.)/5% FCS/1% Penicillin/Streptomycin, respectively. CHO-E cell tethering and rolling on hematopoietic cell monolayers was visualized by video microscopy in real time using the parallel-plate flow chamber. […] To prepare hematopoietic cell monolayers>90% confluent, suspensions of cells (KG1a, HL60, K562, or RPMI 8402) at 2×10^6/ml RPMI1640 without NaBicarbonate/2% FBS were cytocentrifuged in […] plates at 5×10^6/well and then fixed in 3% glutaraldehyde. Reactive aldehyde groups were blocked in 0.2M lysine, and plated cells were suspended H/H/Ca++. […] The number of CHO-E/Mock cell rolling on each monolayer was measured in one frame of five independent fields under 10× magnification from multiple experiments. A minimum of 3 experiments was performed and results were expressed as the mean±standard deviation.

[2] = test system: KG1a cells; test: CHO-E cell rolling on glutaraldehyde-fixed KG1a monolayers; type: cell-based, human; settings: 2.8 dynes/cm^2; EDTA 5 mM; HECA 452 50 μg/ml
Source text: as §1

[3] = target: T1, L-selectin; test: Stamper-Woodruff assay, lymphocyte adherence to immunoprecipitated CD44 and PSGL-1; type: cell-based; settings: 80 rpm; for Mean Number of Bound Lymphocytes: 0.75 μg/spot (PSGL-1 1 μg/spot), 4° C., 100× mag.
Description: These protein spots were then fixed in 3% glutaraldehyde, unreactive aldehyde groups were blocked in 0.2M lysine and slides were kept in RPMI-1640 without NaBicarbonate/2% FBS until ready for testing. Lymphocytes (10^7/ml RPMI-1640 without NaBicarbonate/5% FBS) were overlayed onto these fixed immunoprecipitates and incubated on an orbital shaker at 80 rpm for 30 min. at 4° C. The number of adherent lymphocytes was quantified by light microscopy using an ocular grid under 100× magnification (a minimum of 5 fields/slide, 2 slides/experiment, and 3 separate experiments). Data were presented as the mean number of bound lymphocytes±standard deviation. KG1a CD34 and L-selectin control immunoprecipitates were also tested in this manner. To verify the dependence for sialic acid, glutaraldehyde-fixed spots were treated with Vibrio cholerae neuraminidase (0.1 U/ml RPMI-1640 without NaBicarbonate/2% FBS for lhr at 37° C.).
Immunoaffinity purified material (0.75-3 μg/spot) was spotted onto glass slides for analyses in the Stamper-Woodruff assay (See below for assay description). For autoradiographic analysis of immunoprecipitated [^35S]-methionine-radiolabeled CD44 and PSGL-1, immunoprecipitates were spotted onto glass slides, allowed to dry and exposed Kodak BioMax-MR film for 12 h at −80° C. Densitometric analysis (optical density) of the autoradiograms was performed with a Hewlett-Packard Scanj et 5200C scanner and NIH Image processing and analysis program.

[4] = target: T2, E-selectin; test: Blot rolling assay with CHO-E cells; type: cell-based; settings: immunoprecipitated CD44 on Western blot; 3.8 dynes/cm^2
Description: The blot rolling assay was performed as previously described (Dimitroff et al., 2000). Briefly, CHO-E, CHO—P or CHO-Mock transfectants were isolated as described above, washed twice in HBSS and suspended at 10^7/ml in HBSS/10 mM HEPES/2mMCaCl2 (H/H/Ca++)/10% glycerol. Western blots of HPC membrane preparations stained with HECA-452 were rendered transparent by incubating them in H/H/Ca++/10% glycerol. The blots were then placed in the parallel-plate flow chamber, and CHO transfectants (2×10^6/ml) were perfused into the chamber. After allowing the cells to come in contact with the blotting membrane, the flow rate was adjusted to exert a shear stress of 3.8 dynes/cm^2. The viscosity of 10% glycerol adhesion assay medium was considered in the calculation of shear stress values. The number of cells rolling on and between each immunostained banding region was quantified under 100× magnification within each field of view on the video monitor using molecular weight markers (Kaleidoscope Molecular Weight Markers, Bio-Rad Lab.; See Blue® from Novex, Inc.) as guides to help align and visualize the apparent molecular weights of the proteins of interest. A minimum of 3 experiments was performed and results were expressed as the mean±SD of cell rolling/field at 100× magnification.

[5] = target: T2, E-selectin; test: CHO-E cell rolling on immobilized immunoprecipitates, parallel-plate flow chamber; type: cell-based; settings: immunoprecipitates on plastic; 2.8 dynes/cm^2
Description: CD44 was immunoprecipitated from untreated cell lysates or from cell lysates treated with N-glycosidase-F (0.8 U/ml) Vibrio cholerae neuraminidase (0.1 U/ml) or a-L-fucosidase (80 mU/ml), and PSGL-1 was immunoprecipitated from untreated cell lysates as previously described (Sackstein and Dimitroff, 2000; Dimitroff et al., 2000).
CD44 or PSGL-1 immunoprecipitates were spotted onto plastic petri dishes, fixed in 3% glutaraldehyde and incubated in 0.2M lysine to block unreactive aldehyde groups, and then non-specific binding was prevented by incubating in 100% FBS for 1 hr at RT. Fixed spots were also treated with Vibrio cholerae neuraminidase (0.1 U/ml assay medium), which was overlaid onto the spots and incubated at 37° C. for 1 hr. […] The flow rate was then increased to achieve a shear stress of 2.8 dynes/cm^2. The frequency of cells rolling per 100× magnification field was determined, and data were expressed as the mean±standard deviation of 8 fields visualized from a minimum of 3 experiments.

Row | Molecule | Mean Number of Bound Lymphocytes [3] | E-selectin ligand activity (CHO-E cell rolling) [5] | further results
1 | O=C(O)CN(CCN(CC(=O)O)CC(=O)O)CC(=O)O [EDTA] |  |  | CHO-E cell rolling / E-selectin ligand activity of HL60 cells [1]: completely inhibited; CHO-E cell rolling / E-selectin ligand activity of KG1a cells [2]: completely inhibited
2 | AML (M1) N-glycosidase-F CD44: N-glycosidase-F-treated CD44 from AML (M1) blasts | 23.4 |  | 
3 | BMEC-1 CD44: CD44 from human BM endothelial cell line BMEC-1 |  |  | E-selectin ligand activity (CHO-E cell rolling) in blot rolling assay [4]: did not possess any E-selectin ligand activity
4 | RPMI 8402 CD44: CD44 isolated from RPMI 8402 cells |  | did not support any CHO-E cell rolling | 
5 | K562 CD44: CD44 isolated from K562 cells |  | did not support any CHO-E cell rolling | 
6 | HL60 CD44: CD44 immunoprecipitated from HL60 cells | 6.5 | did not support any CHO-E cell rolling | 
7 | a-L-fucosidase-treated KG1a CD44: CD44 immunoprecipitated from a-L-fucosidase-treated KG1a lysate |  | abrogated CHO-E cell rolling | 
8 | AML (M1) CD44: CD44 (HCELL) immunoprecipitated from blasts of an AML without maturation (M1) | 425.3 |  | fold higher mean number of lymphocytes bound to CD44 than to PSGL-1 ([3]; p<0.001): 3 fold
9 | HL60 PSGL-1: PSGL-1 immunoprecipitated from HL60 cells (protein) QATEYEYLDYDFLPETEPPEMLRNSTDTTPLTGPGTPESTTVEPAARRSTGLDAGGAVTELTTELANMGNLSTDSAAMEIQTTQPAATEAQTTQPVPTEAQTTPLAATEAQTTRLTATEAQTTPLAATEAQTTPPAATEAQTTQPTGLEAQTTAPAAMEAQTTAPAAMEAQTTPPAAMEAQTTQTTAMEAQTTAPEATEAQTTQPTATEAQTTPLAAMEALSTEPSATEALSMEPTTKRGLFIPFSVSSVTHKGIPMAASNLSVNYPVGAPDHISVKQCLLAILILALVATIFFVCTVVLAVRLSRKGHMYPVRNYSPTEMVCISSLLPDGGEGPSATANGGLSKAKSPGLTPEPREDREGDDLTLHSFLP | 11.0 |  | 
10 | AML (M1) PSGL-1: PSGL-1 immunoprecipitated from AML (M1) blasts (protein) QATEYEYLDYDFLPETEPPEMLRNSTDTTPLTGPGTPESTTVEPAARRSTGLDAGGAVTELTTELANMGNLSTDSAAMEIQTTQPAATEAQTTQPVPTEAQTTPLAATEAQTTRLTATEAQTTPLAATEAQTTPPAATEAQTTQPTGLEAQTTAPAAMEAQTTAPAAMEAQTTPPAAMEAQTTQTTAMEAQTTAPEATEAQTTQPTATEAQTTPLAAMEALSTEPSATEALSMEPTTKRGLFIPFSVSSVTHKGIPMAASNLSVNYPVGAPDHISVKQCLLAILILALVATIFFVCTVVLAVRLSRKGHMYPVRNYSPTEMVCISSLLPDGGEGPSATANGGLSKAKSPGLTPEPREDREGDDLTLHSFLP | 141.5 |  | 
11 | CD34 (Molecular Control): CD34 (QBend-10) immunoprecipitated from KG1a cells, negative molecular control (protein) SLDNNGTATPELPTQGTFSNVSTNVSYQETTTPSTLGSTSLHPVSQHGNEATTNITETTVKFTSTSVITSVYGNTNSSVQSQTSVISTVFTTPANVSTPETTLKPSLSPGNVSDLSTTSTSLATSPTKPYTSSSPILSDIKAEIKCSGIREVKLTQGICLEQNKTSSCAEFKKDRGEGLARVLCGEEQADADAGAQVCSLLLAQSEVRPQCLLLVLANRTEISSKLQLMKKHQSDLKKLGILDFTEQDVASHQSYSQKTLIALVTSGALLAVLGITGYFLMNRRSWSPTGERLGEDPYYTENGGGQGYSSGPGTSPEAQGKASVNRGAQENGTGQATSRNGHSARQHVVADTEL | 4.0 |  | 
12 | L-selectin (Molecular Control): L-selectin (LAM 1-3) immunoprecipitated from KG1a cells, negative molecular control (protein) WTYHYSEKPMNWQRARRFCRDNYTDLVAIQNKAEIEYLEKTLPFSRSYYWIGIRKIGGIWTWVGTNKSLTEEAENWGDGEPNNKKNKEDCVEIYIKRNKDAGKWNDDACHKLKAALCYTASCQPWSCSGHGECVEIINNYTCNCDVGYYGPQCQFVIQCEPLEAPELGTMDCTHPLGNFSFSSQCAFSCSEGTNLTGIEETTCGPFGNWSSPEPTCQVIQCEPLSAPDLGIMNCSHPLASFSFTSACTFICSEGTELIGKKKTICESSGIWSNPSPICQKLDKSFSMIKEGDYNPLFIPVAVMVTAFSGLAFIIWLARRLKKGKKSKRSMNDPY | 0.5 |  | 
